Data on one molecule can be found in US20200181226A1 (UNUM THERAPEUTICS, published 2020).

The target in test [1] is ACTR variant SEQ ID NO: 9. The test is described as follows: cell-based or functional assay.
For test [2], the target named is T1, ACTR variant SEQ ID NO: 9.
T1 construct: also called ACTR T cells; ACTR-expressing T cells
The test is described as follows: flow cytometry titration of rituximab on T cells expressing ACTR variant SEQ ID NO: 9; bound rituximab detected with a fluorochrome-labeled anti-human Fc antibody.

Test [3] addresses T1, ACTR variant SEQ ID NO: 9. Description: apparent affinity; flow cytometry, rituximab titrated on ACTR-expressing T cells, anti-human Fc detection. In general terms: In flow cytometry, cells or beads pass a laser one at a time.

As a reminder, the EC50 (read off the curve) is the concentration at which the effect is half-maximal. Lower therefore signals an effect from little substance.

T1 sequence (chain, as listed by the source mutant limits assumed): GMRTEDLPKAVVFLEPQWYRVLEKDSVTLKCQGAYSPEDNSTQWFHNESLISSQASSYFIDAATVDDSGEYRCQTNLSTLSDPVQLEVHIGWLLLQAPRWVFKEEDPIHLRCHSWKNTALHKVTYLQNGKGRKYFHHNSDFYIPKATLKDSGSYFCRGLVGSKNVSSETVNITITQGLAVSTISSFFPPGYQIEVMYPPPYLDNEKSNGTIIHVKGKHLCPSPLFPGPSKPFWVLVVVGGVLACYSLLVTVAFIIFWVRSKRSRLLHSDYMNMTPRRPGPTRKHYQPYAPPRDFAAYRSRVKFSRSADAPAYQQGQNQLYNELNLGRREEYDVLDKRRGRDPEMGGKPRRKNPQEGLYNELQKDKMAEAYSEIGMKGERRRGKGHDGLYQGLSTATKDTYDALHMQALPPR

B1: rituximab (antibody, V domains shown)
VH: QVQLQQPGAELVKPGASVKMSCKASGYTFTSYNMHWVKQTPGRGLEWIGAIYPGNGDTSYNQKFKGKATLTADKSSSTAYMQLSSLTSEDSAVYYCARSTYYGGDWYFNVWGAGTTVTVSA
VL: QIVLSQSPAILSASPGEKVTMTCRASSSVSYIHWFQQKPGSSPKPWIYATSNLASGVPVRFSGSGSGTSYSLTISRVEAEDAATYYCQQWTSNPPTFGGGTKLEIK
In the case of B1, the “EC50 (µg/mL) of cytotoxicity, Raji Target Cells + Rituximab” value in test [1] was found to be 0.07 µg/mL. Also, the “EC50 (read off the curve)” value in test [2] was roughly 700 nM. Further, the Kd in test [3] worked out at 689 nM.
